Reference: PMC8886539
“And” between values parts separate entries of the source, which are not always exact repeats. Identical values can stand only once.

How the values were obtained:
[1] = biological target: DNA polymerase α-primase complex (human) (UniProt P09884)
[2] = biological target: DNA polymerase α-primase complex (human) (UniProt P09884); remark: listed apart in the source
[3] = biological target: full-length SV40 T antigen Tag_(1-708) (simian virus 40) (UniProt P03070); assay: atomic force microscopy (volume analysis); 500 nM protein (or 250 nM each of M1 and M2) with gapped DNA substrate (48 nt ssDNA at the centre of ~500 bp, 3-5 nM) in 25 mM HEPES-NaOH pH 7.5, 25 mM sodium acetate, 10 mM magnesium acetate, 1 mM ATP, 1 h at room temperature; cross-linked with 0.1% glutaraldehyde; volumes of complexes on the ssDNA stretch
[4] = biological target: wt Tag_(131-627) (simian virus 40); assay: as above
[5] = biological target: wt Tag_(131-627) (simian virus 40); assay: SEC; Superdex 200 16/600 column; proteins in solution; data not shown

Chain of UniProt P09884 (P09884 whole entry, chain 1 of 4): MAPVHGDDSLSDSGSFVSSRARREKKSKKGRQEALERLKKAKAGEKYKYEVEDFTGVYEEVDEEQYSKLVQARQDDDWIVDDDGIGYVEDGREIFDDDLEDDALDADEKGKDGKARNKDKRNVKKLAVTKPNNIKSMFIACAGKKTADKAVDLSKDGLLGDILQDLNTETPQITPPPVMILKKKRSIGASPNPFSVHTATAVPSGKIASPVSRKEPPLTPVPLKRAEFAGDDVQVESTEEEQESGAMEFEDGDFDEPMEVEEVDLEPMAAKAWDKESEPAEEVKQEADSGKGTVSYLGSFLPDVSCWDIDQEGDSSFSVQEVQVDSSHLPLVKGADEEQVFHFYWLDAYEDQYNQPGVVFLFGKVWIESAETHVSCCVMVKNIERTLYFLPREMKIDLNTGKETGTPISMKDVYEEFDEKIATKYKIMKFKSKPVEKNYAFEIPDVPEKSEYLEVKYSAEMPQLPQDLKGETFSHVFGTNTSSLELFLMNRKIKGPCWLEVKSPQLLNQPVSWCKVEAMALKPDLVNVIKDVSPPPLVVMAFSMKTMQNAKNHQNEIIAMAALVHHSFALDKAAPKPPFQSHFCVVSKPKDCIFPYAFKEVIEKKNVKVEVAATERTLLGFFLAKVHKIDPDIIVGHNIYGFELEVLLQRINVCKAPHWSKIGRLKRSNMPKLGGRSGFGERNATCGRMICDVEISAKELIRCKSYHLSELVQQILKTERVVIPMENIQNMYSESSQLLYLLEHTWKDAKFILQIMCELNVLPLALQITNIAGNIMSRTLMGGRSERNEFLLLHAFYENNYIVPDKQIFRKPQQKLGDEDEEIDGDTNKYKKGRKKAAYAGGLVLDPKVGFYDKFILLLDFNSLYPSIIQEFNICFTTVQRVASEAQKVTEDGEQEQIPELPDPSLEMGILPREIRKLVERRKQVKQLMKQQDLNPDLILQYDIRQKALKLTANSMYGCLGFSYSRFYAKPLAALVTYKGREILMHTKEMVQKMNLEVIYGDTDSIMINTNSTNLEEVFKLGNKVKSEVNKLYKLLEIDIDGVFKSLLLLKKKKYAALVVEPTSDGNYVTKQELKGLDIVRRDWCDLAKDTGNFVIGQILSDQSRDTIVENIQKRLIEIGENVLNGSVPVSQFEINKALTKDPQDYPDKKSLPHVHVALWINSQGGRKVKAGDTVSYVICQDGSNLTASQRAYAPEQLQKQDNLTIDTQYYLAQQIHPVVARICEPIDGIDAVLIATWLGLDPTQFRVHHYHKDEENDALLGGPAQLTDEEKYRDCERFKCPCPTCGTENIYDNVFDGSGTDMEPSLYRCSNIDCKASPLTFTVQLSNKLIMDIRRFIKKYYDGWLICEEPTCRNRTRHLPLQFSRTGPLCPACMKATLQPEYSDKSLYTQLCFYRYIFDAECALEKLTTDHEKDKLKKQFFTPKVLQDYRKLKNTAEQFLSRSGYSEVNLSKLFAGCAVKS
Chain of UniProt P09884 (Q14181 whole entry, chain 2 of 4, further chain): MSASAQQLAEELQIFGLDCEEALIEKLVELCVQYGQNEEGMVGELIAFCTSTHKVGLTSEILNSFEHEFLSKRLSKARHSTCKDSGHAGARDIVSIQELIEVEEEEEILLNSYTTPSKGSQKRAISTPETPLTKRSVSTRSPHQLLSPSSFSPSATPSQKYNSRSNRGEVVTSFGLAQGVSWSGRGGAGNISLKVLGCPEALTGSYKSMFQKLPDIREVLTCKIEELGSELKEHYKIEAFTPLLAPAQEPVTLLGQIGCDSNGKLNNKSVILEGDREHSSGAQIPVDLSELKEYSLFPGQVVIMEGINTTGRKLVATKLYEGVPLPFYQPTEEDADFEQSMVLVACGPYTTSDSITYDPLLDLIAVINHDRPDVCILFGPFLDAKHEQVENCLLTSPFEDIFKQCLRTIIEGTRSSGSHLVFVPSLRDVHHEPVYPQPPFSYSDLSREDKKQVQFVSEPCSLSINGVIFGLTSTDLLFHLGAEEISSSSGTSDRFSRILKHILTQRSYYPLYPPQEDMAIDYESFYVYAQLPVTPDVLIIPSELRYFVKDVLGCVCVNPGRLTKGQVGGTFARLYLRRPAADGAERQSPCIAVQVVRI
Chain of UniProt P09884 (P49643 whole entry, chain 3 of 4, further chain): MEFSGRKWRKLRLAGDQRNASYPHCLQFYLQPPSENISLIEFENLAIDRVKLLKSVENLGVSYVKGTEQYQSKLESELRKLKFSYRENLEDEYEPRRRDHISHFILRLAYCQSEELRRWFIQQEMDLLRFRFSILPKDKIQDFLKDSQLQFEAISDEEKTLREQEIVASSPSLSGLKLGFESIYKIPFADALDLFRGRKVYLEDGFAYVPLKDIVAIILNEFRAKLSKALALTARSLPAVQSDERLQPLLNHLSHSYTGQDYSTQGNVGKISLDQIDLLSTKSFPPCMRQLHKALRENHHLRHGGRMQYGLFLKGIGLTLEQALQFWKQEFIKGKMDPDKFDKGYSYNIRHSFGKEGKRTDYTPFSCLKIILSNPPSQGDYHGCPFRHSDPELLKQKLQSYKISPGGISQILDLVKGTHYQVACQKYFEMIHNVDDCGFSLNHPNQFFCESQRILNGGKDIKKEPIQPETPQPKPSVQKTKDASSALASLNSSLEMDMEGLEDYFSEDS
Chain of UniProt P09884 (P49642 whole entry, chain 4 of 4, further chain): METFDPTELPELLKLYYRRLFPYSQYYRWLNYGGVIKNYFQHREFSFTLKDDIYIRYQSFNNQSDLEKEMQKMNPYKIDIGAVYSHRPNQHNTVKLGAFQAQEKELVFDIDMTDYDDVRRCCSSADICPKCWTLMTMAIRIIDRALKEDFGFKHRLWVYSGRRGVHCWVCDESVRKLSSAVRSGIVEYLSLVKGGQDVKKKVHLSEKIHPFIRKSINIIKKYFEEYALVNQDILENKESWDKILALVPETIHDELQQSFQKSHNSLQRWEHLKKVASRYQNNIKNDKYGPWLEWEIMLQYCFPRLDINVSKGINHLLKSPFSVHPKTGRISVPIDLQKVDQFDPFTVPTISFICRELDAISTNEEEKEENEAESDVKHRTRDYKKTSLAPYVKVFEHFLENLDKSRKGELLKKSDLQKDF

## Tag_(131-627)(L286D/R567E) (domain or fragment)
[1]
  primase-initiated DNA synthesis (dNMP incorporation) by Pol-prim on RPA-bound ssDNA (0.5 µg RPA), 0.3 and 0.6 µg Tag variant, stimulation against RPA without Tag: 10.4 fold
[2]
  primase-initiated DNA synthesis (dNMP incorporation) by Pol-prim on ΦΧ174 ssDNA, 0.3 and 0.6 µg Tag variant, stimulation against Pol-prim alone: 4 fold

## Tag_(131-627)(V350E/P417D) (domain or fragment)
[2]
  primase-initiated DNA synthesis (dNMP incorporation) by Pol-prim on ΦΧ174 ssDNA, 0.3 and 0.6 µg Tag variant, reduction against Pol-prim alone: 65 % reduction

## full-length SV40 T antigen Tag_(1-708) (from UniProt P03070 1-708) (natural protein)
[3]
  stoichiometry N: 2
[1]
  primase-initiated DNA synthesis (dNMP incorporation) by Pol-prim on RPA-bound ssDNA (0.5 µg RPA), 0.3 and 0.6 µg Tag, stimulation against RPA without Tag: 11.5 fold

## wt Tag_(131-627) (domain or fragment)
[4]
  stoichiometry N: 6 and 12
[2]
  primase-initiated DNA synthesis (dNMP incorporation) by Pol-prim on ΦΧ174 ssDNA, 0.3 and 0.6 µg Tag variant, inhibition against Pol-prim alone: 96 % inhibition
[5]
  stoichiometry N: 6
